This note sets out measurements from patent US20030021792A1.

For assay [1], the target named is rat MadCam-1 (rat) (UniProt O70540). The assay can be described thus: Europium-labelled antibody injected in rat, time-resolved fluorescence of small intestine homogenate.
The target is the same in assay [2]. The assay can be described thus: Europium-labelled antibody injected in rat, time-resolved fluorescence of pancreas homogenate.
Assay [3] concerns the target rat dipeptidyl peptidase IV (rat) (UniProt P14740). Put plainly: Europium-labelled antibody injected in rat, time-resolved fluorescence of lung homogenate.
Chain of UniProt P14740 (P14740 whole entry R38A/Q470G): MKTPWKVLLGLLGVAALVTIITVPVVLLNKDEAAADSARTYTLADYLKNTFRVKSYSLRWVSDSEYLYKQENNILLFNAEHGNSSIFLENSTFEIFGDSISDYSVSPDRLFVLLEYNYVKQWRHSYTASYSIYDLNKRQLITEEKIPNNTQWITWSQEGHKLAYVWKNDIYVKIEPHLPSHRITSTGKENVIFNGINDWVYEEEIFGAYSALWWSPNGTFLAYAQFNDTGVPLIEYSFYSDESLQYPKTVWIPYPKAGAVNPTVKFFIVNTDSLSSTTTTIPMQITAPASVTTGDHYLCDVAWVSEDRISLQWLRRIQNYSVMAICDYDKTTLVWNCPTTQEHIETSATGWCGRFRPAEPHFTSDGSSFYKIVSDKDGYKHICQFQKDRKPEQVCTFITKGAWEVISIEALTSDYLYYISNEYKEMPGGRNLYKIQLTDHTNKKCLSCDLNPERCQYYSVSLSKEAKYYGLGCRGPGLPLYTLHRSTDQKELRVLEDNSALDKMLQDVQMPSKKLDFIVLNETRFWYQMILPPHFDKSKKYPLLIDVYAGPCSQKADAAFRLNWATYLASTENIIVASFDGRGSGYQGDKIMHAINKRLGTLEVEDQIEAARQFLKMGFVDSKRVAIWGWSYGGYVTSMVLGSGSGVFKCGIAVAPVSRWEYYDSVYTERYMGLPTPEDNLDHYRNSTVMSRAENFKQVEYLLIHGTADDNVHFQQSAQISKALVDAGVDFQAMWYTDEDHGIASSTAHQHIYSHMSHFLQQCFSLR
For assay [4] the target is unchanged. Put plainly: 125I-labelled antibody injected in rat, scintigraphy of tissues.

Chain of UniProt O70540 (O70540 20-394 limits assumed): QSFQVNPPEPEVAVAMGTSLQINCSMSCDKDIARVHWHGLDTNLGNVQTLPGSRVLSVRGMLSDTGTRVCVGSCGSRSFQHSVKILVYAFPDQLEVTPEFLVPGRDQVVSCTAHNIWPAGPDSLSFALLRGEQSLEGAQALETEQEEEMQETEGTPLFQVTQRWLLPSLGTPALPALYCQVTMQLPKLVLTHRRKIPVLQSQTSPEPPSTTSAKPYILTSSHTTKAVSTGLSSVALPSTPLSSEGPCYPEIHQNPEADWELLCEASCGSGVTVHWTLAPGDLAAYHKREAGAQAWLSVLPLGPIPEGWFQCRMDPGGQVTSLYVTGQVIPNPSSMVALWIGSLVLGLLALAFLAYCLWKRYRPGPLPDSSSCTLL

In the case of “OST-2 (Pharmingen), mouse monoclonal antibody that recognizes rat MadCam-1”, the percent of injected dose in the small intestine (5 µg dose, 6 hours) (% of injected dose) with rat MadCam-1 (rat) [1] was above 5. The substance further registered a percent of injected dose localized to the pancreas (5 µg dose, 6 hours) (% of injected dose) with rat MadCam-1 (rat) [2] of 3.
In assay [3], “OX-61 (Pharmingen), mouse monoclonal antibody specific for DPP-4” yielded a percent of injected dose localized in the lungs (5 µg dose, 30 minutes) (% of injected dose) of 15 and a percent of injected dose localized in the lungs (5 µg dose, 6 hours) (% of injected dose) of 7. Further, in assay [4], the antibody per gram of lung tissue (5 µg dose, 5 minutes) (µg per gram of tissue) is above 0.4; the antibody per gram of lung tissue (5 µg dose, 8 hours) (µg per gram of lung tissue) is 0.7; the percent of injected dose localized in the lung (1 µg dose, 2 hours) (% of injected dose) is 22; the percent of injected dose localized in the lung (1 µg dose, 8 hours) (% of injected dose) turned out to be 30. Moreover, the percent of injected dose localized in the lung (5 µg dose, 5 minutes) (% of the initial antibody dose) in assay [4] stood at 20.
